Data taken from patent US20140200179A1.
Several values for one entry are separate records, joined by “and”; a condition that tells them apart may be missing. Equal values may be shown once.

Molecular target: Fz-CRD (biotinylated Fz5- and Fz8-CRD)
Experiment: SPR, biotinylated Fz5- and Fz8-CRD on the chip, mini-Xwnt8 flowed over at several concentrations

- Kd: 1000 nM and 2000 nM
Substance: mini-XWnt8 (amino acid residues 248-338) (from UniProt P28026) (ligand)
